Measured values taken from the supplement of paper PMC5998384.

Key:
HeLa Kyoto [1] = assay: solubility in G1/S (NP-40 vs SDS abundance) (log2 ratio); higher = more soluble; settings: cell cycle stage: G1/S
HeLa Kyoto [2] = assay: melting temperature (median over replicates), in situ; higher = more thermally stable
HeLa Kyoto [3] = assay: solubility change mitosis vs G1/S (difference of NP-40 vs SDS log2 ratios) (log2 ratio difference); higher = more soluble in mitosis
HeLa Kyoto [4] = assay: thermal stability score vs G1/S (z-score of summed log2 fold changes over temperatures); higher = more thermally stable than in G1/S
[5] = cell cycle stage: early G1 (4.5 h after nocodazole release)
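Wherever melting temperature (median over replicates), in situ is given: HeLa Kyoto cells synchronized by double thymidine or nocodazole block, proteins quantified by TMT10plex mass spectrometry, three independent biological replicates.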
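Wherever solubility change mitosis vs G1/S (difference of NP-40 vs SDS log2 ratios) is given: synchronized HeLa Kyoto cells (double thymidine block for G1/S, nocodazole release for mitosis), protein amounts in NP-40 versus SDS lysates quantified by mass spectrometry, three biological replicates.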
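Wherever solubility in G1/S (NP-40 vs SDS abundance) is given: HeLa Kyoto cells arrested at G1/S by double thymidine block, proteins quantified by TMT10plex mass spectrometry in mild NP-40 versus SDS extracts, three biological replicates.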
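Wherever thermal stability score vs G1/S (z-score of summed log2 fold changes over temperatures) is given: synchronized HeLa Kyoto cells, proteins quantified by TMT10plex mass spectrometry, three biological replicates, mitosis taken 0.5 h after nocodazole release, G1/S directly after double thymidine block.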

Sequence | solubility in G1/S (log2) (HeLa Kyoto [1]) | melting temperature (HeLa Kyoto [2]; cell cycle stage: G1/S) | melting temperature (HeLa Kyoto [2]; cell cycle stage: mitosis) | solubility change mitosis (log2) (HeLa Kyoto [3]) | thermal stability score (HeLa Kyoto [4]; [5]) | thermal stability score (HeLa Kyoto [4]; cell cycle stage: mitosis)
MSVGFIGAGQLAFALAKGFTAAGVLAAHKIMASSPDMDLATVSALRKMGVKLTPHNKETVQHSDVLFLAVKPHIIPFILDEIGADIEDRHIVVSCAAGVTISSIEKKLSAFRPAPRVIRCMTNTPVVVREGATVYATGTHAQVEDGRLMEQLLSSVGFCTEVEEDLIDAVTGLSGSGPAYAFTALDALADGGVKMGLPRRLAVRLGAQALLGAAKMLLHSEQHPGQLKDNVSSPGGATIHALHVLESGGFRSLLINAVEASCIRTRELQSMADQEQVSPAAIKKTILDKVKLDSPAGTALSPSGHTKLLPRSLAPAGKD [PYCR1] | 0.208 | 54.9 °C | 53.7 °C | -0.0764 | 0.0884 | -3.11
MSVLGEYERHCDSINSDFGSESGGCGDSSPGPSASQGPRAGGGAAEQEELHYIPIRVLGRGAFGEATLYRRTEDDSLVVWKEVDLTRLSEKERRDALNEIVILALLQHDNIIAYYNHFMDNTTLLIELEYCNGGNLYDKILRQKDKLFEEEMVVWYLFQIVSAVSCIHKAGILHRDIKTLNIFLTKANLIKLGDYGLAKKLNSEYSMAETLVGTPYYMSPELCQGVKYNFKSDIWAVGCVIFELLTLKRTFDATNPLNLCVKIVQGIRAMEVDSSQYSLELIQMVHSCLDQDPEQRPTADELLDRPLLRKRRREMEEKVTLLNAPTKRPRSSTVTEAPIAVVTSRTSEVYVWGGGKSTPQKLDVIKSGCSARQVCAGNTHFAVVTVEKELYTWVNMQGGTKLHGQLGHGDKASYRQPKHVEKLQGKAIRQVSCGDDFTVCVTDEGQLYAFGSDYYGCMGVDKVAGPEVLEPMQLNFFLSNPVEQVSCGDNHVVVLTRNKEVYSWGCGEYGRLGLDSEEDYYTPQKVDVPKALIIVAVQCGCDGTFLLTQSGKVLACGLNEFNKLGLNQCMSGIINHEAYHEVPYTTSFTLAKQLSFYKIRTIAPGKTHTAAIDERGRLLTFGCNKCGQLGVGNYKKRLGINLLGGPLGGKQVIRVSCGDEFTIAATDDNHIFAWGNGGNGRLAMTPTERPHGSDICTSWPRPIFGSLHHVPDLSCRGWHTILIVEKVLNSKTIRSNSSGLSIGTVFQSSSPGGGGGGGGGEEEDSQQESETPDPSGGFRGTMEADRGMEGLISPTEAMGNSNGASSSCPGWLRKELENAEFIPMPDSPSPLSAAFSESEKDTLPYEELQGLKVASEAPLEHKPQVEASSPRLNPAVTCAGKGTPLTPPACACSSLQVEVERLQGLVLKCLAEQQKLQQENLQIFTQLQKLNKKLEGGQQVGMHSKGTQTAKEEMEMDPKPDLDSDSWCLLGTDSCRPSL [NEK9] | -0.134 | 51 °C | 51.2 °C | -0.102 | 0.358 | -0.633
MSVLLRSGLGPLCAVARAAIPFIWRGKYFSSGNEPAENPVTPMLRHLMYKIKSTGPITVAEYMKEVLTNPAKGYYVYRDMLGEKGDFITSPEISQIFGELLGIWFISEWMATGKSTAFQLVELGPGRGTLVGDILRVFTQLGSVLKNCDISVHLVEVSQKLSEIQALTLTKEKVPLERNAGSPVYMKGVTKSGIPISWYRDLHDVPKGYSFYLAHEFFDVLPVHKFQKTPQGWREVFVDIDPQVSDKLRFVLAPSATPAEAFIQHDETRDHVEVCPDAGVIIEELSQRIALTGGAALVADYGHDGTKTDTFRGFCDHKLHDVLIAPGTADLTADVDFSYLRRMAQGKVASLGPIKQHTFLKNMGIDVRLKVLLDKSNEPSVRQQLLQGYDMLMNPKKMGERFNFFALLPHQRLQGGRYQRNARQSKPFASVVAGFSELAWQ [NDUFAF7] | 0.278 | 49.2 °C | 49 °C | -0.162 | 0.103 | 1.08
MSVNSEKSSSSERPEPQQKAPLVPPPPPPPPPPPPPLPDPTPPEPEEEILGSDDEEQEDPADYCKGGYHPVKIGDLFNGRYHVIRKLGWGHFSTVWLCWDMQGKRFVAMKVVKSAQHYTETALDEIKLLKCVRESDPSDPNKDMVVQLIDDFKISGMNGIHVCMVFEVLGHHLLKWIIKSNYQGLPVRCVKSIIRQVLQGLDYLHSKCKIIHTDIKPENILMCVDDAYVRRMAAEATEWQKAGAPPPSGSAVSTAPQQKPIGKISKNKKKKLKKKQKRQAELLEKRLQEIEELEREAERKIIEENITSAAPSNDQDGEYCPEVKLKTTGLEEAAEAETAKDNGEAEDQEEKEDAEKENIEKDEDDVDQELANIDPTWIESPKTNGHIENGPFSLEQQLDDEDDDEEDCPNPEEYNLDEPNAESDYTYSSSYEQFNGELPNGRHKIPESQFPEFSTSLFSGSLEPVACGSVLSEGSPLTEQEESSPSHDRSRTVSASSTGDLPKAKTRAADLLVNPLDPRNADKIRVKIADLGNACWVHKHFTEDIQTRQYRSIEVLIGAGYSTPADIWSTACMAFELATGDYLFEPHSGEDYSRDEDHIAHIIELLGSIPRHFALSGKYSREFFNRRGELRHITKLKPWSLFDVLVEKYGWPHEDAAQFTDFLIPMLEMVPEKRASAGECLRHPWLNS [SRPK2] | -0.405 | 53.3 °C | 52.2 °C | 0.0499 | -3.22 | -4.46
MSVPSALMKQPPIQSTAGAVPVRNEKGEISMEKVKVKRYVSGKRPDYAPMESSDEEDEEFQFIKKAKEQEAEPEEQEEDSSSDPRLRRLQNRISEDVEERLARHRKIVEPEVVGESDSEVEGDAWRMEREDSSEEEEEEIDDEEIERRRGMMRQRAQERKNEEMEVMEVEDEGRSGEESESESEYEEYTDSEDEMEPRLKPVFIRKKDRVTVQEREAEALKQKELEQEAKRMAEERRKYTLKIVEEETKKELEENKRSLAALDALNTDDENDEEEYEAWKVRELKRIKRDREDREALEKEKAEIERMRNLTEEERRAELRANGKVITNKAVKGKYKFLQKYYHRGAFFMDEDEEVYKRDFSAPTLEDHFNKTILPKVMQVKNFGRSGRTKYTHLVDQDTTSFDSAWGQESAQNTKFFKQKAAGVRDVFERPSAKKRKTT [MFAP1] | -0.901 | 57.2 °C | 54.3 °C | 0.782 | -4 | -4.38
MSVQVVSAAAAAKVPEVELKDLSPSEAESQLGLSTAAVGAMAPPAGGGDPEAPAPAAERPPVPGPGSGPAAALSPAAGKVPQASAMKRSDPHHQHQRHRDGGEALVSPDGTVTEAPRTVKKQIQFADQKQEFNKRPTKIGRRSLSRSISQSSTDSYSSAASYTDSSDDETSPRDKQQKNSKGSSDFCVKNIKQAEFGRREIEIAEQEMPALMALRKRAQGEKPLAGAKIVGCTHITAQTAVLMETLGALGAQCRWAACNIYSTLNEVAAALAESGFPVFAWKGESEDDFWWCIDRCVNVEGWQPNMILDDGGDLTHWIYKKYPNMFKKIKGIVEESVTGVHRLYQLSKAGKLCVPAMNVNDSVTKQKFDNLYCCRESILDGLKRTTDMMFGGKQVVVCGYGEVGKGCCAALKAMGSIVYVTEIDPICALQACMDGFRLVKLNEVIRQVDIVITCTGNKNVVTREHLDRMKNSCIVCNMGHSNTEIDVASLRTPELTWERVRSQVDHVIWPDGKRIVLLAEGRLLNLSCSTVPTFVLSITATTQALALIELYNAPEGRYKQDVYLLPKKMDEYVASLHLPTFDAHLTELTDEQAKYLGLNKNGPFKPNYYRY [AHCYL2] | -0.105 | 60.1 °C | 57.5 °C | -0.0168 | -1.59 | -3.95
MSVVGIDLGFLNCYIAVARSGGIETIANEYSDRCTPACISLGSRTRAIGNAAKSQIVTNVRNTIHGFKKLHGRSFDDPIVQTERIRLPYELQKMPNGSAGVKVRYLEEERPFAIEQVTGMLLAKLKETSENALKKPVADCVISIPSFFTDAERRSVMAAAQVAGLNCLRLMNETTAVALAYGIYKQDLPPLDEKPRNVVFIDMGHSAYQVLVCAFNKGKLKVLATTFDPYLGGRNFDEALVDYFCDEFKTKYKINVKENSRALLRLYQECEKLKKLMSANASDLPLNIECFMNDLDVSSKMNRAQFEQLCASLLARVEPPLKAVMEQANLQREDISSIEIVGGATRIPAVKEQITKFFLKDISTTLNADEAVARGCALQCAILSPAFKVREFSITDLVPYSITLRWKTSFEDGSGECEVFCKNHPAPFSKVITFHKKEPFELEAFYTNLHEVPYPDARIGSFTIQNVFPQSDGDSSKVKVKVRVNIHGIFSVASASVIEKQNLEGDHSDAPMETETSFKNENKDNMDKMQVDQEEGHQKCHAEHTPEEEIDHTGAKTKSAVSDKQDRLNQTLKKGKVKSIDLPIQSSLCRQLGQDLLNSYIENEGKMIMQDKLEKERNDAKNAVEEYVYDFRDRLGTVYEKFITPEDLSKLSAVLEDTENWLYEDGEDQPKQVYVDKLQELKKYGQPIQMKYMEHEERPKALNDLGKKIQLVMKVIEAYRNKDERYDHLDPTEMEKVEKCISDAMSWLNSKMNAQNKLSLTQDPVVKVSEIVAKSKELDNFCNPIIYKPKPKAEVPEDKPKANSEHNGPMDGQSGTETKSDSTKDSSQHTKSSGEMEVD [HSPA4L] | 0.145 | 49.8 °C | 49.9 °C | -0.0487 | 1.4 | 1.87
